From patent US20230416361A1 (MIROBIO, published 2023)

T1: monomeric soluble human CD200R extracellular domain (human, UniProt Q8TD46 29-265)
T1 construct: extracellular domain; also called hCD200R; monomeric CD200R protein
T1 sequence (looked up): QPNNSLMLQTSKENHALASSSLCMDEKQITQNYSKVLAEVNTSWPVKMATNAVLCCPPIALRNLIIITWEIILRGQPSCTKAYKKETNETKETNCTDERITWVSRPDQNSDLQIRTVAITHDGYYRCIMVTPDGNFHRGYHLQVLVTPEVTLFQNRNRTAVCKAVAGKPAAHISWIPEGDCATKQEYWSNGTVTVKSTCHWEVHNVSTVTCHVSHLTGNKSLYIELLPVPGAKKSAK

T2: human CD200RLa full length construct on HEK293T cells (human, UniProt Q6Q8B3 24-271)
T2 construct: whole, on cells; also called CD200R1L
T2 sequence (looked up): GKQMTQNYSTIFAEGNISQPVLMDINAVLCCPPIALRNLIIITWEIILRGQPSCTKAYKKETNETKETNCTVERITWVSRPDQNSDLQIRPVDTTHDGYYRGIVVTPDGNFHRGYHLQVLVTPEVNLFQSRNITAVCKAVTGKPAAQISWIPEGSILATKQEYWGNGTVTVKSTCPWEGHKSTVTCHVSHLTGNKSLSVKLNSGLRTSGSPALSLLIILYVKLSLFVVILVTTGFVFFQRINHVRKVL

T3: cyno CD200RLa full length construct on cells (cynomolgus, UniProt A0A2K5W6R0 30-275)
T3 construct: whole, on cells; also called cynomolgus CD200RLa expressed on cells
T3 sequence: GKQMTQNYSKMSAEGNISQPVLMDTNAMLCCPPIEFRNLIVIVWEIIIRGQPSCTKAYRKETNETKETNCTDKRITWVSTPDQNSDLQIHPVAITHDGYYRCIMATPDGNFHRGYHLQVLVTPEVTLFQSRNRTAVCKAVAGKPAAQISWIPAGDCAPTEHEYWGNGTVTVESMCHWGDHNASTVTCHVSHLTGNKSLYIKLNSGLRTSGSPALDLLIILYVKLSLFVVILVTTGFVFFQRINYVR

T4: human CD200RLa extracellular domain fused to mouse CD80 transmembrane and intracellular tail, on HEK293T cells (human; mouse, UniProt Q6Q8B3 24-239; Q00609 247-306, limits assumed)
T4 construct: extracellular domain;domain: transmembrane and intracellular tail; also called human CD200RLa chimeric construct
T4 sequence (looked up): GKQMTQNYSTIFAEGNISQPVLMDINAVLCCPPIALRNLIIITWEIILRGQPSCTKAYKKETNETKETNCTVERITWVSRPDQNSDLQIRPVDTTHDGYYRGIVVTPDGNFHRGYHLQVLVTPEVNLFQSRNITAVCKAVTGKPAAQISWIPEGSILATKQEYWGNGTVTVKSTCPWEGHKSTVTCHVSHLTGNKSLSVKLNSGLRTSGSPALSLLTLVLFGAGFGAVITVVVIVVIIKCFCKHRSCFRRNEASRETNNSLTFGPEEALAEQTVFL

T5: extracellular domain of cyno CD200R (SinoBiological 11232-C08H, Met1-Leu267) (cynomolgus, UniProt G7NZT0 25-268)
T5 construct: range 1-267; Bought protein
T5 sequence: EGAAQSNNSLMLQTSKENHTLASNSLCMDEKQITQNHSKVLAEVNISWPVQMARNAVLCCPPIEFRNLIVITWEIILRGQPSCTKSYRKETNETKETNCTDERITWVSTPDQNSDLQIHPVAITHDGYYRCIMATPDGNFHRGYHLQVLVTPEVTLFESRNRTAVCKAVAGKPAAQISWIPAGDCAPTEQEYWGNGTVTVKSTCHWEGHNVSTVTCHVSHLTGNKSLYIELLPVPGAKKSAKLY

T6: soluble cynomolgus macaque CD200R1 extracellular domain (cynomolgus macaque, UniProt G7NZT0 29-266)
T6 construct: extracellular domain; also called Cynomolgus CD200R
T6 sequence: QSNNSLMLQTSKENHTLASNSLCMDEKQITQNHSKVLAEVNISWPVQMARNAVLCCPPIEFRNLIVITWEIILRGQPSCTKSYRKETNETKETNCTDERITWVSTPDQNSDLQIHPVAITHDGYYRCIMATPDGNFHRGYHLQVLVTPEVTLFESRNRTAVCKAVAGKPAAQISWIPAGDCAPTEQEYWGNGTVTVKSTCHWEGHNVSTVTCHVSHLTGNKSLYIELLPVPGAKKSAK


Columns and labels:
[1] = target: T1, monomeric soluble human CD200R …; experiment: BLI (Octet), antibody on anti-human Fc probes, monomeric CD200R in solution, 25 C, 1:1 global fit
Method: Humanised variant antibodies combining the different heavy and light variable domains described in Example 6 were produced by transient transfection of HEK293 cells. All antibodies were expressed on a human IgGI isotype with a P238D Fc mutation. The unpurified supernatants were analysed by Protein A-HPLC to determine the antibody concentrations, as a measure of expression yield. […] Binding affinity of humanized variants to human CD200R was assessed by bio-layer interferometry on an Octet R4 instrument. Each antibody was captured directly onto anti-human Fc capture probes (Sartorius 18-5060) for 60 sec followed by baseline setting in assay buffer (DPBS, 0.01% Polysorbate-20). Association of monomeric CD200R protein to immobilised antibodies was measured in 4 different protein concentrations (300, 100, 30 and 10 nM in assay buffer) at 25° C., with an association time of 120s and dissociation of 120s in assay buffer only. A reference probe with no antibody immobilised was used for background subtraction. Kinetic rate constants and binding KDs were calculated using Octet Analysis Studio 12 software. Global curve fitting based on all 4 concentrations using a 1:1 model was performed, from which kon and koff were obtained to calculate KD using the relationship KD=koff/kon.

[2] = target: T2, human CD200RLa full length construct on …; experiment: flow cytometry on transiently transfected HEK293T cells
Method: (§1) The binding of CD200R antibodies to human and cyno CD200R and CD200RLa constructs was assessed by flow cytometry of transiently transfected cells. CD200RLa has a charged transmembrane (TM) that is not expected to express well in the absence of appropriate binding partners. Therefore, in addition to the full length CD200RLa constructs, chimeric constructs were used consisting of the CD200RLa extracellular domain fused to mouse CD80 transmembrane and intracellular tail to enable cell surface expression.
(§2) HEK293T cells were plated out at 1 million cells per well in a 6 well plate the day before transfection. The following day cells were transfected with CD200R constructs using 2.5 μg plasmid DNA (a pcDNA3.4 vector containing the CD200R construct sequence) and 10 μl Lipofectamine 2000 (mixed in 200 μl Optimem for 5 minutes then added dropwise to cells). 48 hours after transfection, cells were collected by vigorous pipetting in cold PBS and 50,000 cells pelleted per well in 96 well U bottom plates.
(§3) Cells were then washed and stained for 30 minutes with a secondary staining mix containing a live/dead marker (Near IR LD, Biolegend cat #423106) and APC anti-hIgG (clone QA19A42, Biolegend cat #366906) or AF647 anti-mIgG1 (clone RMG1-1, cat #406618). As a control, cells were separately stained with the commercial anti-CD200R clone OX108 directly labelled with AF647 (Biolegend cat #329308). Finally, cells were washed and resuspended in FACS buffer for acquisition on a FACS Celesta flow cytometer.

[3] = target: T3, cyno CD200RLa full length construct on …; experiment: as above
Method: as §1, §2, §3

[4] = target: T4, human CD200RLa extracellular domain …; experiment: as above
Method: as §1, §2, §3

[5] = target: T5, extracellular domain of cyno CD200R …; experiment: SPR (Biacore), antibody captured by anti-human Fc, CD200R extracellular domain injected, single cycle kinetics, 25 C
Method: This example investigates in vitro CD200R binding of anti-CD200R antibodies by surface plasmon resonance. Surface plasmon resonance binding experiments with purified anti-CD200R antibody (expressed on a hIgG1 isotype with a P238D Fc mutation) were performed using the Biacore T200 and 8K+instruments. Anti-human Fc antibody (Life Technologies H10500) was amine-coupled to a C1 sensor chip using standard amine-coupling chemistry. Residual activated carboxyls were blocked with ethanolamine. Antibodies with a human Fc were then captured on these surfaces.
To assess the binding of hu2131_v20_D56S antibody and variants (antibody hu213l_Q1E and antibody hu2131_Q1E_M99G) to the extracellular domains of human CD200R (Met29-Leu243) and cyno CD200R (SinoBiological 11232-C08H, Metl-Leu267), 10-30 RUs of antibody were captured. CD200R proteins were diluted into running buffer (10 mM HEPES, 150 mM NaCl, 3 mM EDTA, 0.01% Polysorbate 20, pH 7.4 with 0.1 mg/mL BSA) (full-length antibody sequences are disclosed in Table 10). Five three-fold serial dilutions were performed for each CD200R, with highest concentration being 100 nM. Samples were injected using a single cycle kinetics scheme (Karlsson Anal Biochem et al 2006). Data were analyzed using Biacore Insight Evaluation Software and fit to a simple kinetic model, from which kon and koff were obtained to calculate KD using the relationship KD=koff/kon. Experiments were run at 25° C.

[6] = target: T6, soluble cynomolgus macaque CD200R1 …; experiment: SPR, captured antibody, soluble monomeric receptor injected, single cycle kinetics, 37 C
Method: (§4) The binding affinity and kinetics of the CD200R antibodies of the present disclosure to human or cynomolgus CD200R were determined by surface plasmon resonance (SPR) using the Biacore T200 (GE Healthcare). Mouse antibody capture kit (GE Healthcare) was used to coat a Series S CM5 Sensor Chip (GE Healthcare) with polyclonal anti-mouse IgG.
(§5) Anti-CD200R antibody was captured onto the biosensor surface and a negative control antibody (clone Mopc21; Biolegend) captured in the reference channel. Various concentrations of monomeric soluble human CD200R extracellular domain, soluble cynomolgus macaque CD200R1 extracellular domain or soluble cynomolgus macaque CD200RLa (a highly homologous activating receptor) were injected over the immobilized antibodies in the buffer 10 mM Hepes, 150 mM NaCl, 0.005% v/v Surfactant P20, pH 7.4 (HBS-P) at 37° C., in a single cycle kinetics analysis. Association and dissociation rates were fitted using BiaEvaluation Software (GE Healthcare) after reference and blank subtractions, and dissociation constants were calculated (Table 2).

[7] = target: T1, monomeric soluble human CD200R …; experiment: as above
Method: as §4, §5

Kd [6] [nM] | Binder | Kd [7] [nM] | other results
0.0015 | anti-CD200R antibody clone 3.10.2 (mIgG1k isotype) (antibody, V domains shown, Murine hybridoma antibody, IgG1 kappa) VH: QVQLQQPGSELVRPGASVKLSCKASGYTFTSYWMHWVKQRPGQGLEWIGNIFPGSDTTNYDEKFKSKAIMTVDISSSTVYMHLSSLTSEDSAVYYCITYTGAYWGQGTLVTVSA VL: DVQMIQSPSSLSASMGDIVTMTCQASQGTNINLHWFQQKPGKAPKLLISGGSNLEDGVPSRFSGSRYGTDFTLTISSLEDEDMATYFCLQFTYLPWTFGGGTKLDIKR | 0.4 | 
60 | anti-CD200R antibody clone 26.1.2 (mIgG1k isotype) (antibody, V domains shown, Murine hybridoma antibody, IgG1 kappa) VH: EVQLQQSGPELVKPGASVKMSCKASGYTFTSYVMHWVKQKPGQGLEWIGYIHPYNDDIKHNEKFKDKATLTSAKSSSTVYMELSSLTSEDSAVYYCAREEYYGSRFAYWGQGTLVTVSA VL: DIVLTQSPASLAVSLGQRATISCRASKSVRTSGYSYLHWYQQKPGQPPKLLIYLASNLESGVPARFSGSGSGTDFTLNIHPVEEEDAATYYCQYSGELPFTFGGGTKLEIKR | 0.7 | 

More lines, now with the values behind:

Binder | Kd [6] [nM] | Kd [7] [nM] | other results
hu2131_v20 (antibody, human IgG1, V domains shown) VH: QVQLVQSGAEVKKPGASVKVSCKASGHTFTSYWMHWVRQAPGQGLEWMGNIYPGSGSINYDEKFQGRVTMTADTSTSTVYMELSSLRSEDTAVYYCLTMTGTSWGRGTLVTVSS VL: DIQMTQSPSSLSVSVGDRVTITCQASQGTPINLHWFQQKPGKAPKLLISGASNLEDGVPSRFSGSGSGTEFTFTISSLQPEDAATYYCLQFTYIPWTFGQGTKLEIK |  |  | Kd [1]: 0.00276 nM; binding result [2]: no binding (tested: 10 ug/ml); binding result [3]: no binding (tested: 10 ug/ml); binding result [4]: no binding (tested: 10 ug/ml)
Antibody hu2131_Q1E hIgG1k P238D (antibody) heavy: not shown light: DIQMTQSPSSLSVSVGDRVTITCQASQGTPINLHWFQQKPGKAPKLLISGASNLESGVPSRFSGSGSGTEFTFTISSLQPEDAATYYCLQFTYIPWTFGQGTKLEIKRTVAAPSVFIFPPSDEQLKSGTASVVCLLNNFYPREAKVQWKVDNALQSGNSQESVTEQDSKDSTYSLSSTLTLSKADYEKHKVYACEVTHQGLSSPVTKSFNRGEC |  |  | Kd [5]: ≤ 0.0392 nM; koff [5]: ≤ 1e-05 s⁻¹; kon [5]: 255000 M⁻¹ s⁻¹
anti-CD200R antibody clone 7.12.2 (mIgG1k isotype) (antibody, V domains shown, Murine hybridoma antibody, IgG1 kappa) VH: QVQLQQPGSELVRPGASVKLSCKASGYTFTSYWMHWVKQRPGQGLEWIGNIYPGSGTTNYDEKFKSKATLTVDTSSSTAYMQISSLTSEDSAVYYCTTGTSTYWGQGTLVTVSA VL: DVQMIQSPSSLSASLGDIVTMTCQASQGTSINLNWFQQKPGKAPKLLIYGAVNLEDGVPSRFSGSRYGTDFTLTVSSLEDEDMATYFCLQHTYLPWTFGGGTKLEIKR | 0.708 | 2.9 | 
anti-CD200R antibody clone 2.2.7 (mIgG1k isotype) (antibody, V domains shown, Murine hybridoma antibody, IgG1 kappa) VH: QVQLKESGPGLVAPSQSLSITCTVSGFSLTSYGVHWVRQLPGKGLEWLGVIWAGGGTNYNSALMSRLSISKDNSKSQVFLKMNRLQTDDTAIYYCAREGLPRAMDYWGQGTSVTVSS VL: not shown | 159 | 27.6 | 
